The source of these data is patent US20060029995A1, “Novel class of metacaspases” (Vlaams Interuniversitair Instituut Voor Biotechnologie VZW, priority 2003, published 2006).

*: point of attachment. AMC = Cc1cc(=O)oc2cc(N*)ccc12; Boc = CC(C)(C)OC(=O)*

One data set has as its target T1, Atmc9 (Arabidopsis thaliana, UniProt Q9FYE1).
T1 construct: it indeed consists of amino acids 184 to 325 (calculated mass 15427 Da); made in house; host or cells: E. coli BL21(DE3), pDEST17, Ni-NTA purified
T1 sequence (Q9FYE1 1-183 limits assumed): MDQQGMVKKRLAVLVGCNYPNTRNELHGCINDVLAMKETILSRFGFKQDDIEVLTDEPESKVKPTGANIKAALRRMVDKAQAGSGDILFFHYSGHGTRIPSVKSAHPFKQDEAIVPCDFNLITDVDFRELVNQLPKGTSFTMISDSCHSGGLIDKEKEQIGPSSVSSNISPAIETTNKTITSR
T1 sequence (Q9FYE1 184-325 limits assumed): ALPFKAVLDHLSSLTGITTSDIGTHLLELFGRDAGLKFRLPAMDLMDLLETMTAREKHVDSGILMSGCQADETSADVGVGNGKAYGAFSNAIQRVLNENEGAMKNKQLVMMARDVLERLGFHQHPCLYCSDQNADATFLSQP
Kind of data set: kcat/Km of artificial substrates of Atmc9. It counts as biochemical. To be noted: summary of Table 1. As for the experimental part:
The activity assay buffer used was composed of 50 mM MES pH 5.3, 10% (w/v) sucrose, 0.1% (w/v) 3-[(3-cholamidopropyl)dimethylammonio]-1-propanesulfonate [CHAPS], 10 mM DTT.
Release of free AMC was determined in a time course using a FLUOstar Optima fluorescence plate reader (BMB Lab Technologies, Offenburg, Del.). After total hydrolysis of the substrates, kcatlKm was calculated using the following formula: kcat/Km=kobsIEt, where kobs is determined as the decrease per second of the natural logarithm of substrate left, and Et is the concentration of enzyme active sites in the reaction.

The next data set addresses T2, metacaspase 3 (Arabidopsis thaliana, UniProt Q9FMG1).
T2 construct: made in house; host or cells: bacterial production, pDEST17 (E. coli by the general method)
T2 sequence (Q9FMG1 1-362 R151K/L157V/V158I/Q177E): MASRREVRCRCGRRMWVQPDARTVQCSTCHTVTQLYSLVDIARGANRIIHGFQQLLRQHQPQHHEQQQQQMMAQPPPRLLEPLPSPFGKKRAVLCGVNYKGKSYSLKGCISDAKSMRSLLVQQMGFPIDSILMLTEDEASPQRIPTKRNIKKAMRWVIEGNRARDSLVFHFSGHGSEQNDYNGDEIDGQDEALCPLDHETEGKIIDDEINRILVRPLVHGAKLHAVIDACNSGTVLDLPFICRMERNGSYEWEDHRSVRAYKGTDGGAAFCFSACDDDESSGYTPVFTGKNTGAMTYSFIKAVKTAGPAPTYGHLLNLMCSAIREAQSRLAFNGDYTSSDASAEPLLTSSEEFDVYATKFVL
As to the kind of experiment: Cleavage of fluorescent artificial substrates by purified metacaspase 3. It counts as biochemical. The note with it: assay buffers of pHs ranging from 4.5 to 9.0 (MES 50 mM). An excerpt: (§1) For generation of the prodomain deletion mutant of Arabidopsis thaliana metacaspase 3 (MC3ΔN), residues 1 to 91 were replaced by a methionine residue by PCR, using 5′-[…]-3′ (SEQ ID NO:43) as the forward primer and 5′-[…]-3′ (SEQ ID NO:17) as the reverse primer. 5′ extensions used for Gateway™ (Invitrogen) cloning were 5′-[…]-3′ (SEQ ID NO:44) for forward primers and 5′-[…]-3′ (SEQ ID NO:45) for reverse primers. For bacterial production, the cDNA's were cloned into the bacterial expression vector pDEST17™ (Invitrogen), resulting in the amino-terminal translational addition of the following HIS6 tag-containing sequence: […] (SEQ ID NO:37).
(§2) Activity of purified metacaspase 3 was tested with different fluorescent substrates in assay buffers of pHs ranging from 4.5 to 9.0 (MES 50 mM). The substrates tested were: Ac-DEVD-AMC, Z-VAD-AMC, Boc-GRR-AMC, Boc-GKR-AMC, Z-FR-AMC and H-AFK-AMC. Only Z-FR-AMC was cut by metacaspase 3.

Data set [1] can be described thus: Proteolytic activity of Atmc9 against Boc-GKR-AMC at different pH. It is filed as biochemical. How it is done:
Assays were performed in 150 μl with 400 ng of purified Atmc9 and 50 μM substrate in an optimized metacaspase 9 assay buffer (50 mM MES pH 5.3, 10% (w/v) sucrose, 0.1% (w/v) 3-[(3-cholamidopropyl)dimethylammonio]-1-propanesulfonate [CHAPS], 10 mM DTT). Time-dependent release of free amido-4-methylcoumarin (AMC) was measured on a Cytofluor 4000 fluorescence microplate reader (PerSeptive Biosystems, Farmingham, Md., USA).
To further characterize Atmc9 biochemically, the purified protein and its cysteine mutant were tested for their ability to cleave the synthetic fluorogenic oligopeptide substrate t-butyloxycarbonyl-GKR-7-amido-4-methylcoumarin (Boc-GKR-AMC) at different pH.

Data set [2] concerns the target T3, H-Ala-Phe-Lys-7-amido-4-methylcoumarin.
T3 chain: AFK

The target in data set [3] is T4, acetyl-Asp-Glu-Val-Asp-aminomethylcoumarin.
T4 chain: DEVD

Data set [4] has as its target T5, benzyloxycarbonyl-Phe-Arg-AMC.
T5 chain: FR

The target of data set [5] is T6, benzyloxycarbonyl-Val-Ala-Asp-aminomethylcoumarin.
T6 chain: VAD

Data set [6] has as its target T7, t-butyloxycarbonyl-Gly-Arg-Arg-7-amido-4-methylcoumarin.
T7 chain: GRR

For data set [7], the target named is T8, t-butyloxycarbonyl-Gly-Lys-Arg-7-amido-4-methylcoumarin.
T8 chain: GKR

Data set [8] can be described thus: Activity of full length metacaspase 3 and prodomain deletion mutants in function of the pH, Z-FR-AMC as substrate. It counts as biochemical. Set-up: unit not given here.
Text: as §1, §2
A comparison was made between full length (MC3) and a prodomain deletion mutant of wild-type metacaspase 3 (MC3AN) or the C/A mutant (MC3ANC/A). Activity was significant only after addition of the kosmotrope sodium citrate (Na citr., 1 M), in absence of this agent the proteins were not active.
Table 3: Activit y of full length metacaspase 3, and the prodomain deletion mutant in function of the pH, using Z-FR-AMC as substrate. “No enz” was incubated at pH8, without addition of metacaspase.

For data set [9], the target named is T9, Soybean trypsin inhibitor, P01070.
T9 chain: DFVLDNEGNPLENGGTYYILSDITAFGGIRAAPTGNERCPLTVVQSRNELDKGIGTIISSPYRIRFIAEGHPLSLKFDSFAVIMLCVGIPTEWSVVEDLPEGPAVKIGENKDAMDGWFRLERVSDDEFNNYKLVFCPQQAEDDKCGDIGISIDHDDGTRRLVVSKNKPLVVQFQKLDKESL

A further data set has as its target T10, Z-DEVD-cmk.
T10 chain: DEVD

Data set [10] concerns the target T11, Z-FK-2,4,6-trimethylbenzoyloxymethyl ketone.
T11 chain: FK

For a further data set, the target named is T12, Z-VAD-fmk.
T12 chain: VAD

The target of the next data set is T13, Z-YVAD-cmk.
T13 chain: YVAD

For the molecule “t-butyloxycarbonyl-Gly-Arg-Arg-7-amido-4-methylcoumarin (Boc-Gly-Arg-Arg-{AMC}) [Boc-GRR-AMC]”, the “quality as substrate for Atmc9” value with Atmc9 is listed as “good substrates”. Besides, the “cleavage by metacaspase 3” value in the data set with metacaspase 3 is “No activity was detected”.
As for “t-butyloxycarbonyl-Gly-Lys-Arg-7-amido-4-methylcoumarin (Boc-Gly-Lys-Arg-{AMC}; SMILES Cc1cc(=O)oc2cc(NC(=O)[C@H](CCCNC(=N)N)NC(=O)[C@H](CCCCN)NC(=O)CNC(=O)OC(C)(C)C)ccc12) [Boc-GKR-AMC]”, the “quality as substrate for Atmc9” value with Atmc9 is reported as “somewhat less good substrate”. Besides, the “cleavage by metacaspase 3” value with metacaspase 3 is reported as “No activity was detected”.

B1: Atmc9: purified recombinant HIS-tagged Arabidopsis thaliana metacaspase 9, type II (protein, listed as Arabidopsis thaliana)
chain: HHHHHLESTSLYKKAGSTMDQQGMVKKRLAVLVGCNYPNTRNELHGCINDVLAMKETILSRFGFKQDDIEVLTDEPESKVKPTGANIKAALRRMVDKAQAGSGDILFFHYSGHGTRIPSVKSAHPFKQDEAIVPCDFNLITDVDFRELVNQLPKGTSFTMISDSCHSGGLIDKEKEQIGPSSVSSNISPAIETTNKTITSRALPFKAVLDHLSSLTGITTSDIGTHLLELFGRDAGLKFRLPAMDLMDLLETMTAREKHVDSGILMSGCQADETSADVGVGNGKAYGAFSNAIQRVLNENEGAMKNKQLVMMARDVLERLGFHQHPCLYCSDQNADATFLSQP
modifications: N-terminal His6 tag with linker; Atmc9
notes: purified recombinant HIS-tagged Arabidopsis thaliana metacaspase 9, type II
As to B1, the “activity at the physiological pH of the cytoplasm” value in [1] (pH 7.0-7.5) was “completely abolished”. Further, the “GKR-ase activity” value in data set [1] (purified protein, Boc-GKR-AMC at different pH, FIG. 7) is reported as “clearly has GKR-ase activity”.

B2: N-terminally HIS6-tagged Atmc3 (bacterially produced) (protein)
chain: MSYYHHHHHHLESTSLYKKAGSTMASRREVRCRCGRRMWVQPDARTVQCSTCHTVTQLYSLVDIARGANRIIHGFQQLLRQHQPQHHEQQQQQMMAQPPPRLLEPLPSPFGKKRAVLCGVNYKGKSYSLKGCISDAKSMRSLLVQQMGFPIDSILMLTEDEASPQRIPTKRNIRKAMRWLVEGNRARDSLVFHFSGHGSQQNDYNGDEIDGQDEALCPLDHETEGKIIDDEINRILVRPLVHGAKLHAVIDACNSGTVLDLPFICRMERNGSYEWEDHRSVRAYKGTDGGAAFCFSACDDDESSGYTPVFTGKNTGAMTYSFIKAVKTAGPAPTYGHLLNLMCSAIREAQSRLAFNGDYTSSDASAEPLLTSSEEFDVYATKFVL
As to B2, the “cleavage of fluorescent substrate, pH 4.5 to 9.0” value in data set [2] is recorded as “No activity was detected using the other substrates”; in data set [3], “No activity was detected using the other substrates”; in data set [4], “Only Z-FR-AMC was cut by metacaspase 3”; in [5], “No activity was detected using the other substrates”; in data set [6], “No activity was detected using the other substrates”; in data set [7], “No activity was detected using the other substrates”. Further, the Activity in data set [8] (pH 4.5, with sodium citrate (1 M)) is listed as 13.37; in data set [8] (pH 5, with sodium citrate (1 M)) it was 8.05; in [8] (pH 5.5, with sodium citrate (1 M)) it was 5.48; in data set [8] (pH 6, with sodium citrate (1 M)) it was 5.64; in data set [8] (pH 6.5, with sodium citrate (1 M)), 29.58; in [8] (pH 7, with sodium citrate (1 M)), 36.63. The Activity is 41.61 in data set [8] (pH 7.5, with sodium citrate (1 M)); 26.11 in data set [8] (pH 8, with sodium citrate (1 M)); 17.93 in data set [8] (pH 8.5, with sodium citrate (1 M)); −2.57 in data set [8] (pH 9, with sodium citrate (1 M)).

B3: N-terminally HIS6-tagged Atmc9 (bacterially produced) (protein)
chain: MSYYHHHHHHLESTSLYKKAGSTMDQQGMVKKRLAVLVGCNYPNTRNELHGCINDVLAMKETILSRFGFKQDDIEVLTDEPESKVKPTGANIKAALRRMVDKAQAGSGDILFFHYSGHGTRIPSVKSAHPFKQDEAIVPCDFNLITDVDFRELVNQLPKGTSFTMISDSCHSGGLIDKEKEQIGPSSVSSNISPAIETTNKTITSRALPFKAVLDHLSSLTGITTSDIGTHLLELFGRDAGLKFRLPAMDLMDLLETMTAREKHVDSGILMSGCQADETSADVGVGNGKAYGAFSNAIQRVLNENEGAMKNKQLVMMARDVLERLGFHQHPCLYCSDQNADATFLSQP
What is called kcat/Km is the turnover number divided by the Michaelis constant. For B3, the kcat/Km in data set [2] stood at 750 M⁻¹ s⁻¹; in [4], 2900 M⁻¹ s⁻¹; in data set [6], 2900 M⁻¹ s⁻¹; in data set [7], 1900 M⁻¹ s⁻¹. The molecule further yielded an Activity (%) of Atmc9 with Boc-GKR-AMC as substrate, reagent at 100 µg/ml in data set [9] of 73%. The Activity (%) of Atmc9 with Boc-GKR-AMC as substrate, reagent at 100 µM amounted to 94% with Z-DEVD-cmk, 87% with Z-VAD-fmk and 100% with Z-YVAD-cmk. Besides, the Activity (%) of Atmc9 with Boc-GKR-AMC as substrate, reagent at 1 µM in data set [10] is 33%.
